Laboratory results from patent publication US12397037B2, “Methods and compositions for immunomodulation” (CHILDREN'S MEDICAL CENTER CORPORATION, priority 2014, dated 2025).

Legend:
U87MG cells = experiment: Western blot of PI-3K/Akt-mTOR and MAPK signaling in U87MG cells; assay type: cell-based, human
Protocol: U87MG which express NRP-2 were used for this assay.
To determine the effect of SEMA3F on intracellular signaling responses, levels of phosphokinases in the NRP2-expressing human glioblastoma cell line U87MG were profiled.
Western blotting: Proteins within each sample were separated by SDS-PAGE and transferred to nitrocellulose membranes. The membranes were blocked with 4% skimmed milk in TBS-T (0.1% Tween 20 in tris-buffered saline [TBS]) for 30 minutes, followed by incubation with the primary antibody. After washing with TBS-T, membranes were incubated with the appropriate horseradish peroxidase-conjugated secondary antibody, and immunoreactivity was detected by using ECL detection reagents.

[1] = tested on: C57BL/6 recipients of fully mismatched BALB/c cardiac allografts; experiment: Fully MHC mismatched cardiac allograft survival (BALB/c into C57BL/6); assay type: in vivo, mice; details: for mean graft survival: untreated controls 6.5 days
Description: FIG. 2 depicts graft survival curves. Cardiac allografts (Balb/c) were transplanted into fully MHC mismatched recipients (C57BL/6). Unmanipulated recipients reject these allografts within 7-8 days.
FIG. 3 depicts graft survival curves. Cardiac allografts (Balb/c) were transplanted into fully MHC mismatched recipients (C57BL/6). Unmanipulated recipients reject these allografts within 7-8 days.
FIG. 4 depicts graft survival curves of C56BL6 recipient mice after transplantation with Balb/C donor hearts.
Described herein is the treatment of C57BL/6 recipients of fully mismatched BALB/c cardiac allografts with Sema3F.
Ba1b/C donor hearts were transplanted into C56BL6 mice.

VEGF = VEGF protein in conditioned media by ELISA, U87MG cells; assay type: cell-based, human; details: SEMA3F, rapamycin 10 nM or Torin 1 10 nM, 30 minutes prior to DFO, supernatants after 18 hours
Protocol: In each panel data are representative of 3 independent experiments. Bar graphs represent the mean±SD of n=3 experiments performed in triplicate, *, p<0.01 vs. control.
Finally, the effect of SEMA3F on the secretion of VEGF into conditioned media (by ELISA) was determined in the absence or presence of DFO.
The VEGF-A (DVE00) ELISA kit was obtained from R&D Systems (Minneapolis, MN). […] Desferrioxamine (DFO) was purchased from Sigma-Aldrich, and the MEK inhibitor (U0126) was purchased from EMD-Millipore (Billerica, MA). pGL4.74 [hRluc/TK] vector (Promega Madison, WI) was used as an internal control in luciferase assay.

HUVEC = experiment: Western blot of pAkt in HUVEC after PTEN siRNA knockdown; assay type: cell-based, human; details: PTEN siRNA 20 nM, SEMA3F 1800 ng/ml
Protocol: FIG. 36A depicts a western blot. HUVEC were treated with SEMA3F (1800 ng/ml) for 30 minutes and were subjected to immunoprecipitation and Western blot analyses with anti-NRP2 and -PTEN as illustrated. FIG. 36B depicts a western blot. HUVEC were transfected with control-, or Plexin A1-specific siRNAs (20 nM), prior to SEMA3F treatment (1800 ng/ml); lysates were subjected to immunoprecipitation and Western blot analyses with anti-NRP2 and anti-PTEN as illustrated. FIG. 36C depicts a western blot. HUVEC were transfected with control-, or PTEN-specific siRNAs (20 nM), prior to SEMA3F treatment (1800 ng/ml); lysates were analyzed by Western blot. FIG. 36D depicts a western blot. U87MG cells were transfected with control or GIPC1-specific siRNA (20 nM). After 48 hours, cells were treated with SEMA3F (200, 600, 1800 ng/ml, from left to right) for 30 minutes, and were analyzed by Western blot. FIG. 36E depicts a western blot. U87MG cells were treated with U0126 (10 μM) for 30 minutes prior to combination with 30 minutes and 60 minutes of SEMA3F (640 ng/ml). Akt and MAPK signaling was analyzed by Western blot. All data presented are representative of 3 independent experiments.
It is thus likely that SEMA3F inactivates mTORC2 via upstream inhibition of PI-3K. […]

[2] = U87MG cells, 640 ng/ml time course

B1: SEMA3F: Human recombinant full-length His-Myc-tagged SEMA3F, secreted by transfected 293T cells and purified; class 3 semaphorin, NRP-2 ligand (protein, listed as Homo sapiens)
chain: MLVAGLLLWASLLTGAWPSFPTQDHLPATPRVRLSFKELKATGTAHFFNFLLNTTDYRILLKDEDHDRMYVGSKDYVLSLDLHDINREPLIIHWAASPQRIEECVLSGKDVNGECGNFVRLIQPWNRTHLYVCGTGAYNPMCTYVNRGRRAQATPWTQTQAVRGRGSRATDGALRPMPTAPRQDYIFYLEPERLESGKGKCPYDPKLDTASALINEELYAGVYIDFMGTDAAIFRTLGKQTAMRTDQYNSRWLNDPSFIHAELIPDSAERNDDKLYFFFRERSAEAPQSPAVYARIGRICLNDDGGHCCLVNKWSTFLKARLVCSVPGEDGIETHFDELQDVFVQQTQDVRNPVIYAVFTSSGSVFRGSAVCVYSMADIRMVFNGPFAHKEGPNYQWMPFSGKMPYPRPGTCPGGTFTPSMKSTKDYPDEVINFMRSHPLMYQAVYPLQRRPLVVRTGAPYRLTTIAVDQVDAADGRYEVLFLGTDRGTVQKVIVLPKDDQELEELMLEEVEVFKDPAPVKTMTISSKRQQLYVASAVGVTHLSLHRCQAYGAACADCCLARDPYCAWDGQACSRYTASSKRRSRRQDVRHGNPIRQCRGFNSNANKNAVESVQYGVAGSAAFLECQPRSPQATVKWLFQRDPGDRRREIRAEDRFLRTEQGLLLRALQLSDRGLYSCTATENNFKHVVTRVQLHVLGRDAVHAALFPPLSMSAPPPPGAGPPTPPYQELAQLLAQPEVGLIHQYCQGYWRHVPPSPREAPGAPRSPEPQDQKKPRNRRHHPPDT
modifications: His-Myc tag
notes: Human recombinant full-length His-Myc-tagged SEMA3F, secreted by transfected 293T cells and purified; class 3 semaphorin, NRP-2 ligand
U87MG cells; U87MG cells
  pSGK1 (S422) and pPKC (S657): inhibited
U87MG cells; U87MG cells transfected with constitutively active Akt (2DAkt), SEMA3F 640 ng/ml
  pS6K and pS6 in 2DAkt transfected cells: no change in expression
U87MG cells; [2]
  persistence of inhibitory effect: greater than 60 minutes
  time within which pAkt (T308 and S473), pmTOR, pS6K and pS6 were inhibited: 10-20 minutes
U87MG cells; U87MG cells, SEMA3F 640 ng/ml
  pAkt (S473) in 2DAkt transfectants: reduced the level of pAkt (S473)
U87MG cells; U87MG cells, SEMA3F 640 ng/ml for 60 minutes vs untreated
  pAkt (T308 and S473) and pS6K: reduced levels of pAkt (T308 and S473) and pS6K
U87MG cells; U87MG cells, SEMA3F ~640 ng/mL, after 10 min
  inhibition of expression of pAkt (S473) (densitometry): > 80%
U87MG cells; U87MG cells, rapamycin 30 minutes, then SEMA3F and rapamycin for 60 minutes
  pAkt and pS6K after rapamycin pretreatment: reduced levels of both pAkt and pS6K
U87MG cells; U87MG cells, siRNA 20 nM, SEMA3F 640 ng/ml
  pAkt, pS6K and pS6 in NRP2 and Plexin A1-siRNA transfected cells: failed to inhibit
U87MG cells; U87MG cells, signaling
  concentration at which peak effects were observed: ~600 ng/mL
U87MG cells; U87MG cells, ~640 ng/mL
  expression of pERK1/2: markedly reduced
  time of peak effect on pERK1/2: ≤ 30 mins
U87MG cells; U87MG cells, ~640 ng/mL, by 30 min
  pAkt (S473), pAkt (T308), pmTOR and pS6K: most significant reduction
U87MG cells; U87MG, SEMA3F 200 ng/ml, 30 minutes
  pAkt and pS6K signaling at the lowest concentration: inhibits pAkt and pS6K signaling
[1]; NRP-2KO recipients
  rejection in NRP-2KO mice: can inhibit rejection
[1]; Sema3F administered via adenovirus, n=4 mice
  mean graft survival: > 22 days
[1]; Sema3F administered via i.p. injection, n=16 mice
  mean graft survival: 23.4 days
[1]; day 5 post transplantation, mice of FIG. 2 (adenovirus)
  CD3, CD4, CD8 and Treg populations by FACS: no differences are observed
VEGF
  DFO-induced VEGF protein secretion: significantly reduced
HUVEC
  pAkt expression following siRNA knockdown of PTEN: failed to inhibit pAkt expression
